Data on 13 substances can be found in patent US20210230254A1.

Chain of 3BNC55 (antibody) (V domain): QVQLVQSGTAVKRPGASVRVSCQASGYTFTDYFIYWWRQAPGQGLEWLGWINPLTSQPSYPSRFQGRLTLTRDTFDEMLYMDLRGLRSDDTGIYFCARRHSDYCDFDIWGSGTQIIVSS
Chain of 3BNC55 (antibody) (VL): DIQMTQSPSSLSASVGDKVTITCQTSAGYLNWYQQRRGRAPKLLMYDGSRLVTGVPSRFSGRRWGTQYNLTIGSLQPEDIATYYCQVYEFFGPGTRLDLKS
Chain of 3BNC117 (antibody) (VH): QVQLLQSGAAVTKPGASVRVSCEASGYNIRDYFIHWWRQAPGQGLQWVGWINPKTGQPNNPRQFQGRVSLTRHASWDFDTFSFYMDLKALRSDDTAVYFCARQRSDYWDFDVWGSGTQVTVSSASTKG
Chain of 3BNC117 (antibody) (VL): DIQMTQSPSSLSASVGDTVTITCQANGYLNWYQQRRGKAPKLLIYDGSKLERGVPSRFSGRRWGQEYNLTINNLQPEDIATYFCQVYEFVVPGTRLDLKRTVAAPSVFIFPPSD
Chain of 3BNC60 (antibody) (VH): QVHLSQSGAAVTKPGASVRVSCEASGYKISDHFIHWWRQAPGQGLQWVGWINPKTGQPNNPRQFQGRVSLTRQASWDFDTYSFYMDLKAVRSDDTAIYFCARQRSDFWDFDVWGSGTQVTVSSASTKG
Chain of 3BNC60 (antibody) (VL): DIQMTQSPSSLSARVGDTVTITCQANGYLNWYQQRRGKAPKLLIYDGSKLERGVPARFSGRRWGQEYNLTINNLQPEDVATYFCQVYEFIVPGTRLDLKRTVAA
Chain of 12A12 (antibody) (VH): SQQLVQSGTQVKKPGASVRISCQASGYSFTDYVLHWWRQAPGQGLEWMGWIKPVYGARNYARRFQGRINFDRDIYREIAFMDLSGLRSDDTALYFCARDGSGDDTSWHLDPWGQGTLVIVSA
Chain of 12A12 (antibody) (VL): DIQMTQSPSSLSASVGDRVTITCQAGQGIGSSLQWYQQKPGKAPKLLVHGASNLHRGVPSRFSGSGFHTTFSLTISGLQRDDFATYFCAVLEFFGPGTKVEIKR
Chain of 12A21 (antibody) (VH): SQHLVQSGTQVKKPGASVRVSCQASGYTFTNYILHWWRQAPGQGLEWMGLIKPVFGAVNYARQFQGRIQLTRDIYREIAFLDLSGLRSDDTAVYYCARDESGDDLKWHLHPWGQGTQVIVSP
Chain of 12A21 (antibody) (VL): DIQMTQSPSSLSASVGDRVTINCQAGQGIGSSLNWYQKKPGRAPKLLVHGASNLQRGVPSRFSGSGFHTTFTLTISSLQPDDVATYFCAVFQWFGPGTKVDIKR
Chain of NIH45-46 (antibody) (VH): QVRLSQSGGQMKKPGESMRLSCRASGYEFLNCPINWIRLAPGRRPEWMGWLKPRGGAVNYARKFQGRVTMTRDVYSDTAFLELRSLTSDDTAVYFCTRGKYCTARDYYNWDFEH
Chain of NIH45-46 (antibody) (VL): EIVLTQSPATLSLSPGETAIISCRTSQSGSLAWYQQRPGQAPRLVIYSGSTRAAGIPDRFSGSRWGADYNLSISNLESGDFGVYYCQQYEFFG
Chain of 8ANC195 (antibody) (V domain): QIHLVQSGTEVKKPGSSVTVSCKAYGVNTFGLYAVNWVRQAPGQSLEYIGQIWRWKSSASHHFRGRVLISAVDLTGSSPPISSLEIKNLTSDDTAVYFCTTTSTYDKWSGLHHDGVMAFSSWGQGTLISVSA
Chain of 8ANC195 (antibody) (VL): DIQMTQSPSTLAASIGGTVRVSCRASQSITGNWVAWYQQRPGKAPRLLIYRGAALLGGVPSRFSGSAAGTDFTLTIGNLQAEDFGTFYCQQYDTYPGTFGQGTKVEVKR
Chain of 3BNC66 (antibody) (V domain): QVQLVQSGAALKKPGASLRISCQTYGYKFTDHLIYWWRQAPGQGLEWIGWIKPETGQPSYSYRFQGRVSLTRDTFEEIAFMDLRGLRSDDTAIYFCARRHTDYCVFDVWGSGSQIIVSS
Chain of 3BNC66 (antibody) (VL): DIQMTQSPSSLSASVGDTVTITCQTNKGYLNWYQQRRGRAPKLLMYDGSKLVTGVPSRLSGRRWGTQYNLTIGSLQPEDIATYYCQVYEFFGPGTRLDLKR
Chain of 3BNC156 (antibody) (VH): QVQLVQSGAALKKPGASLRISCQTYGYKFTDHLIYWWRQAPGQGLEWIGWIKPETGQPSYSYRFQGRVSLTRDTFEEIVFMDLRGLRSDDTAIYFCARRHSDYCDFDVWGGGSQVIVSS
Chain of 3BNC156 (antibody) (VL): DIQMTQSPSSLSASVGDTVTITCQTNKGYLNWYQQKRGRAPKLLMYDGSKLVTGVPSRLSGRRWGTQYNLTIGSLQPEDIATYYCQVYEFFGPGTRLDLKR

In one assay the target is 2CC-core (HIV-1 YU2) (UniProt P35961). The assay is described as follows: SPR, 2CC-core on chip, IgG injected.
As to 1B2530 (antibody), the Kd stood at 5.9 nM, the koff is 0.000402 s⁻¹ and the association rate constant (kon) is 68300 M⁻¹ s⁻¹.

3BNC156 (antibody) registered a Kd of 81.2 nM, a koff of 0.00153 s⁻¹ and a kon of 18800 M⁻¹ s⁻¹.

1NC9 (antibody) had a Kd of 4.61 nM, a koff of 0.000236 s⁻¹ and a kon of 51100 M⁻¹ s⁻¹.

In turn, 3BNC66 (antibody) came in with a Kd of 33.6 nM, a koff of 0.00133 s⁻¹ and an on-rate constant (kon) of 39600 M⁻¹ s⁻¹.

Substance NIH45-46 (antibody) had a Kd of 4.4 nM, a koff of 0.000494 s⁻¹ and a kon of 112000 M⁻¹ s⁻¹.

The substance 3BNC55 (antibody) displayed a Kd of 25.7 nM.

3BNC117 (antibody) showed a dissociation constant (Kd) of 36.8 nM.

Substance 8ANC131 (antibody) returned a Kd of 66.1 nM, a koff of 0.00323 s⁻¹ and a kon of 48800 M⁻¹ s⁻¹.

Substance 3BNC60 (antibody) had a Kd of 54.5 nM, a koff of 0.00164 s⁻¹ and an on-rate constant (kon) of 30200 M⁻¹ s⁻¹.

For the substance 12A21 (antibody), the Kd worked out at 1.81 nM, the off-rate constant (koff) turned out to be 0.00033 s⁻¹ and the kon was 182000 M⁻¹ s⁻¹.

Turning to 8ANC134 (antibody), the equilibrium dissociation constant (Kd) stood at 46.1 nM, the koff came to 0.000957 s⁻¹ and the kon came to 20800 M⁻¹ s⁻¹.

8ANC195 (antibody) gave a Kd of 54.7 nM, an off-rate (koff) of 0.00132 s⁻¹ and a kon of 24100 M⁻¹ s⁻¹.

12A12 (antibody) displayed a Kd of 0.0269 nM, a koff of 1.7e-06 s⁻¹ and a kon of 63300 M⁻¹ s⁻¹.

The next assay shares this target.
Experiment: not given
For the substance 3BNC55 (antibody), the off-rate (koff) was determined as 0.000815 s⁻¹ and the kon came out at 31600 M⁻¹ s⁻¹.

In the case of 3BNC117 (antibody), the koff is 0.00149 s⁻¹ and the kon is 40500 M⁻¹ s⁻¹.
